B1: HDV Ribozyme (parent)
chain: GGCCGGCAUGGUCCCAGCCUCCUCGCUGGCGCCGGCUGGGCAACAUUCCGAGGGGACCGUCCCCUCGGUAAUGGCGAAUGGGACCCA

Variants of: B1
Assay: self-cleavage, relative activity (ratio to wild type); higher = more cleavage; co-transcriptional

Variant	self-cleavage
U37A A43G	0.0554
U46A G80U	0.176
C26U C85G	1.22
G29U G81U	0.0554
C19G C30A	0.0225
A51G G52U	1.02
C48U G54C	1.2
G17C C84U	0.326
G38C G53C	0.295
G34C C86A	0.13
A70C G80C	0.135
C4G U65G	0.231
A70G G74U	0.65
C32A G35U	0.157
G10U C66A	0.895
G34U A56G	0.288
G40C C57U	0.354
C4G U23G	0.0386
C41G C44U	0.403
U20C G68A	0.111
G1U U69G	0.435
G6U A71U	0.415
C7A A87G	0.521
C49U G73A	0.716

Variant	self-cleavage
C14A G52C	0.782
U9C U72A	0.587
C32U G54A	0.891
C49U G74C	0.374
A45G U46C	0.511
C18U C30U	0.185
U12C C41A	0.388
C36A A70G	0.119
A78C G80C	0.0514
C85U A87U	0.956
G34C C58U	0.181
G5A C41U	0.277
C30G C75G	0.0997
C21U G68U	0.271
G6A G81A	0.282
G6A G34U	0
C18G G54C	0.0475
U12C G28A	0.0707
G39C G80U	0.101
G31C G76A	0.453
G11C A70G	0.0692
G39C G59C	0.162
G52C G53U	0.782
U9A G35U	0.264

Variant	self-cleavage
U20A A83G	0.14
C32A G40A	0.242
G5A U60G	0
A43U G54A	0.487
C15A G38A	0.0978
G1A U23A	0.217
C58A G74U	0.554
G39C G82A	0.0308
U65A G67A	0.98
G25A G28A	0.0482
C4U U47A	0.739
G5U U20C	0
G39A A56C	0.447
G1C C26U	0.0898
C24A G59C	0.8
G17C C64U	0.0475
G39C G50A	0.246
C4A U46G	0.0615
U23A C61A	1.03
G34C C44A	0.0831
G68U G74C	0.222
A42U U60G	0.615
C4A C21G	0
U9C G53C	1.15

Variant	self-cleavage
U12A C64A	0.26
C75A C84A	0.269
C4A C22U	0.148
G1A C15A	0.0923
G2C C41U	0.0475
U9G C33U	0.87
G17A U72G	0.378
C4A A78C	0.0308
G10U A45U	0.506
G10U G29U	0.0475
G25A G35A	0.271
A77C	0.377
A71C U72A	0.332
G25U G59A	0.104
G34U G80A	0.113
U20C A42U	0.0978
C30A G55A	0.472
A8G G39C	0.142
C26G C61G	0.811
C62G A83C	0.253
A51U A56U	1.25
G34C G55A	0.147
G39A C63U	0.503
U37G U60C	0.256

Variant	self-cleavage
G35A U46C	0.289
C18U C48G	0.683
G29U G35U	0.058
G5U A83G	0.0573
C41U C86U	0.967
G55U U65C	0.73
A42U G81U	0.145
U60C C62A	1.01
G31C G35C	0.0978
C7U C85A	0.665
C15A U27G	0.653
G39U G74A	0.669
A56G U65A	0.867
C24U C63A	0.753
C30G A45G	0.0563
G55C U60G	0.898
G5U C14U	0.612
C61A G82A	0.46
U9G C26A	1.23
G39U G40C	0.451
C14A C44A	0.246
C26U U60A	1.05
U9C G82A	0.266
C48G U69G	0.712

Variant	self-cleavage
G28A U69C	0.0361
G10A A83U	0.322
C21G C26A	0
G5A A56U	0.106
A43G C49A	0.554
C33G C86U	0.214
G10A U46G	0.536
G5C G81U	0.131
C57U A71G	1.12
C7U U60C	1.26
A42C C66A	0.332
C58U A87G	0.876
C30U G76A	0.862
G39A G82U	0.0536
U65G C75G	0.323
G10C C58A	0.886
G11A G40A	0.582
C4G A56C	0.32
C61A C62U	1.01
C26U C61A	1.06
C44G C48G	0.575
C30G G53A	0.0482
A51U G82A	0.543
C19A G40A	0.109

Variant	self-cleavage
U37G G39A	0.0811
C7G G76C	0.151
G39U A70C	0.536
G28A G67C	0.0519
C33U G53C	0.727
G55A A70U	0.831
A42U C62U	0.742
G6A G10A	0.372
G34U U65A	0.0923
G34U G74A	0.0821
U47C G76C	0.931
U47C G76U	0.895
G6U U20A	0.0978
C30A C36U	0.148
C49A C63A	0.597
A42G C75U	0.397
G10A G25C	0.0639
C75G G82U	0.215
A51U G74U	0.369
C21G C44A	0
G17A G38U	0.1
C4A G6A	0.0573
G1A A51C	0.0831

Source: the RNAGym collection of RNA variant scans (doi:10.7554/elife.80360)
